T1: human fibrinogen (human, UniProt P02671 20-629; P02675 31-491; P02679 27-437)
T1 sequence 1: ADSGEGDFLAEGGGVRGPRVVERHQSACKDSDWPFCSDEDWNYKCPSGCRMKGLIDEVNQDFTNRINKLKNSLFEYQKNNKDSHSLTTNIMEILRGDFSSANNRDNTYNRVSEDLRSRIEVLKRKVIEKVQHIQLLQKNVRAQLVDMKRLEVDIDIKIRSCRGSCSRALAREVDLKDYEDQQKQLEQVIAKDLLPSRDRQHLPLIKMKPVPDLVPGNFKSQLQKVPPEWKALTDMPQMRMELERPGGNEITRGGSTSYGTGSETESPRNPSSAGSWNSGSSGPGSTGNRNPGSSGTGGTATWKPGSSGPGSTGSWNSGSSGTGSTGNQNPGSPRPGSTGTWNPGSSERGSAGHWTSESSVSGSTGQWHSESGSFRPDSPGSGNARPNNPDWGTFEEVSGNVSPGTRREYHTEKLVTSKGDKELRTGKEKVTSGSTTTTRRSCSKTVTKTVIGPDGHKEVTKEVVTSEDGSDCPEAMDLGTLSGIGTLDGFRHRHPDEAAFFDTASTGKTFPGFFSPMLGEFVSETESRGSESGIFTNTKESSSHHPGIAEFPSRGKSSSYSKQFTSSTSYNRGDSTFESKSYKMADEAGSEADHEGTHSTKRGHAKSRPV
T1 sequence 2: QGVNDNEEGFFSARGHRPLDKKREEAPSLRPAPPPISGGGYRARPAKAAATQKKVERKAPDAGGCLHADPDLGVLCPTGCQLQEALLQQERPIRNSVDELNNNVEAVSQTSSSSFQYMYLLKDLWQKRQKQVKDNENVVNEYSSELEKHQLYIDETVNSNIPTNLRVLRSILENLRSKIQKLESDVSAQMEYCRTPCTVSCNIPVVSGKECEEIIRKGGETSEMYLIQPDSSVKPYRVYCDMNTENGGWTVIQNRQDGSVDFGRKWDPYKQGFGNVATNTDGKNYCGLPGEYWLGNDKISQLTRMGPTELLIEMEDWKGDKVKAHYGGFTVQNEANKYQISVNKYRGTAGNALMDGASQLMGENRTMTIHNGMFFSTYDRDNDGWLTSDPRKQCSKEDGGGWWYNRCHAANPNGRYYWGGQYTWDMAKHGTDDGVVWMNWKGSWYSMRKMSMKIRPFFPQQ
T1 sequence 3: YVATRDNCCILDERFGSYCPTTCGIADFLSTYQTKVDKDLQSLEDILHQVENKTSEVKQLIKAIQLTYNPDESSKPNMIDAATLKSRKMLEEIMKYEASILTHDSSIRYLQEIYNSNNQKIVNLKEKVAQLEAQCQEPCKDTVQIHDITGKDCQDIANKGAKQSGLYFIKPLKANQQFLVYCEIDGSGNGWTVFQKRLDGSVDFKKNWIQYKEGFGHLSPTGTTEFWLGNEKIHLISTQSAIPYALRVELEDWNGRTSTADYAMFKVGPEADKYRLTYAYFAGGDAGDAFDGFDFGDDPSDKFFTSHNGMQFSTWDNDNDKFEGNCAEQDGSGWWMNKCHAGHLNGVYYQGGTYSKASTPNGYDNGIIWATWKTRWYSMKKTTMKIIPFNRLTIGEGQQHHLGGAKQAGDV


What was measured:
human fibrinogen [1] = target: T1, human fibrinogen; assay: ELISA, ECM protein coated, recombinant protein detected with mouse antiserum; positive if signal 2.5x background
human fibrinogen [2] = target: T1, human fibrinogen; assay: ELISA, ECM protein coated, His-tag protein detected with anti-His6 mAb
Description: Plates were washed once with PBS and blocked with 1% BSA in PBS for 1 h. Fifty □l of 5 and 10 µM concentrations of purified His-tag proteins in the blocking buffer were added and incubated at ambient temperature for 2 h. Plates were washed three times with 0.05% Tween20 in PBS and incubated 2 h with 1:3000 dilution of His₆-tag monoclonal antibody (Amersham Biosciences Corp., Piscataway, N.J.) in blocking buffer. After three washes, 1:3000 dilution of alkaline phosphatase-conjugated anti-mouse antibody in blocking buffer was added to the wells and incubated 2 h. Finally, signal was detected with nitrobluetetrazolium (NBT) and 5-bromo-4-chloro-3-indolyl-phosphate (BCIP) in 0.1 M NaHCO₃, 1 mM MgCl₂, pH 9.8. Absorbance at 405 nm was measured with an ELISA reader

human fibrinogen [3] = target: T1, human fibrinogen; assay: screen of binding to ECM proteins; format not detailed for EF1269

| Binder | binding result (human fibrinogen [2]) | further results |
| --- | --- | --- |
| EF1093 A domain (recombinant EF1093), N-terminal His6-tag fusion protein (other, not shown: N-terminal His6-tag from vector pQE-30) EENGESAQLVIHKKKMTDLPDPLIQNSGKEMSEFDKYQGLADVTFSIYNVTNEFYEQRAAGASVDAAKQAVQSLTPGKPVAQGTTDANGNVTVQLPKKQNGKDAVYTIKEEPKEGVVAATNMVVAFPVYEMIKQTDGSYKYGTEELAVVHIYPKNVVANDGSLHVKKVGTAENEGLNGAEFVISKSEGSPGTVKYIQGVKDGLYTWTTDKEQAKRFITGKSYEIGENDFTEAENGTGELTVKNLEVGSYILEEVKAPNNAELIENQTKTPFTIEANNQTPVEKTVKNDTSKVDKTTPSLDGKDVAIGEKIKYQISVNIPLGIADKEGDANKYVKFNLVDKHDAALTFDNVTSGEYAYALYDGDTVIAPENYQVTEQANGFTVAVNPAYIPTLTPGGTLKFVYFMHLNEKADPTKGFKNEANVDNGHTDDQTPPTVEVVTGGKRFIKVDGDVTATQALAGASFVVRDQNSDTANYLKIDETTKAATWVKTKAEATTFTTTADGLVDITGLKYGTYYLEETVAPDDYVLLTNRIEFVVNEQSYGTTENLVSPEKVPNKHK | – | binding result (human fibrinogen [1]): binds |
| EF0089 A domain (EF0089A), N-terminal His6-tag fusion protein (other, Expressed in E. coli from pQE-30 and purified; not shown: N-terminal His6-tag from vector pQE-30) EEVNSDGQLTLGEVKQTSQQEMTLALQGKAQPVTQEVVVHYSANVSIKAAHWAAPNNTRKIQVDDQKKQIQIELNQQALADTLVLTLNPTATEDVTFSYGQQQRALTLKTGTDPTESTAITSSPAASANEGSTEEASTNSSVPRSSEETVASTTKAIESKTTESTTVKPRVAGPTDISDYFTGDETTIIDNFEDPIYLNPDGTPATPPYKEDVTIHWNFNWSIPEDVREQMKAGDYFEFQLPGNLKPNKPGSGDLVDAEGNVYGTYTISEDGTVRFTFNERITSESDIHGDFSLDTHLNDSDGRGPGDWVIDIPTQEDLPPVVIPIVPDTEQQIDKQGHFDRTPNPSAITWTVDINQAMKDQTNPTVTETWPTGNTFKSVKVYELVMNLDGTIKEVGRELSPDEYTVDKNGNVTIKGDTNKAYRLEYQTTIDEAVIPDGGGDVPFKNHATLTSDNNPNGLDAEATVTATYGKMLDKRNIDYDEANQEFTWEINYNYGEQTIPKDQAVITDTMGDNLTFEPDSLHLYSVTFDDKGNEVVGAELVEGKDYKVVINGDGSFAIDFLHDVTGAVKIDYKTKVDGIVEGDVAVNNRVDVGTGQHSEDDGTASQQNIIKNTGAVDYQNSTIGWTLAVNQNNYLMENAVITDTYEPVPGLTMVPNSLVVKDTTTGAQLTLGKDFMVEITRNADGETGFKVSFIGAYAKTSDAFHITYTTFFDVTELDANNPALDHYRNTAAIDWTDEAGNNHHSEDSKPFKPLPAFDLNAQKSGVYNAVTKEITWTIAVNLSNNRLVDAFLTDPILTNQTYLAGSLKVYEGNTKPDGSVEKVKPTQPLTDITMEEPSEKNQNTWRVDFPNDSRTYVIEFKTSVDEKVIEGSASYDNTASYTNQGSSRDVTGKVSIQHGGESVKKGGEYHKDDPDHVYWHVMINGAQSVLDDVVITDTPSPNQVLDPESLVIYGTNVTEDGTITPDKSVILEEGKDYTLEVTTDNETGQQKIVVKMAHIEAPYYMEYRSLVTSSAAGSTDTVSNQVSITGNGSEVVHGDDNGDVVVDIDHSGGHATGTKGKIQLKKTAMDETTILAGAHFQIWDQAKTQVLREGTVDATGVITFGG | binds | – |
| EF1269 A domain (EF1269A), N-terminal His6-tag fusion protein (other, not shown: N-terminal His6-tag from vector pQE-30) ETGYAQTEPTSTSETNQISATPNVVPRKQVGNIVTAIQLTDKEGNPLGTINQYTDIYLRIEFNLPDNTVNSGDTSVITLPEELRLEKNMTFNVVDDTGTVVAIAQTDVANKTVTLTYTDYVENHANISGSLYFTSLIDFENVENESKIPIYVTVEGEKIFAGDLDYQGEGDDVNEKFSKYSWFIEDDPTEIYNVLRINPTGQTYTDLEVEDVLKTESLSYMKDTMKIERGQWTLDGNAIWQFTPEEDITDQLAVQYGPDDRNFSVHFGNIGTNEYRITYKTKIDHLPEKGETFTNYAKLTENQTVVEEVEVSRVSQTGGGEANGEQYVVEIHKEDEAGQRLAGAEFELIRNSTNQTVAKITTDQNGTAIVKGLLKDNYTLVETKAPTGYQLSQNKIPITPEDFGKNLVALKTVVNHKISYQPVAASFLAGKVLLGKPLKDAEFQFELLDEKGTVLETVSNDTLGKIQFSPLTFETPGNYQYTIREVNTQQTGVSYDTHNLQVQVTVEALLGNLVATTQYDGGQVFTNHYTPEKPIESTTPPTSGTTDTTTNSTTETTSITIEKQAIRNKE | – | binding result (human fibrinogen [3]): no binding |
| EF2224 A domain (EF2224A), N-terminal His6-tag fusion protein (other, Expressed in E. coli from pQE-30 and purified; not shown: N-terminal His6-tag from vector pQE-30) QEVTSDAEKTVEKDGLKVIGKIEDTSSQEDIKTVTYEVTNTRDVPIKDLILKQKNTNDSPIKFVLDTLSEERGPTSLEEQAKVETNEKDQTTDIKLLNLQPNSTRKITINGQITTKASNKLLVSVLIEDNEKGTLVIDLPSKDILADKESVSKEKQETSETKVENQANETASSTNEMTATTSNETKPEAGKAIESIQETALTQATESPEQPPLKAQPTGPLVPPTPGRGFNTPIYQSVHKGELFSTGNTNLKIANENTAAAQTFLNTRGASSGYAINNFPLEFADVDNDPNTYNSSRAYIDLNGAKEIAWAGLFWSASRYKGPAYGTNLSDEEISAPVQFTTPNGTVQRVSPQRYHRIDQDATNPGQRFGYNNTGFSNYADVTSILQGDKSATGSYTLADIPMTSSLNGQYQYYNFSGWSLFVVTKDQASKSRAFSIYYGARGNAAGTNNEFTMSNFLTAKQGNLDPIVTWFTVQGDKYWTGDNAQIKNSAGTWVNISNTLNPVNNAMNATVTDNDEHMVDKYPGKFAPDHPNFLDIDIDRMAIPEGVLNAGQNQINFRTTSSGDDYSTNAIGFAVNAETPEFEIKKEIVEPKETYKVGETITYRVSLKNTKADSEAINSVSKDALDGRLNYLPGSLKIISGPNSGEKTDASGDDQAEYDETNKQIIVRVGNGATATQGGSYKADTAETIYEFKARINERAKANELVPNSATVEAVDILTSAKVNETSNIVEAKIADEQVT | binds | – |

Source: patent US20040101919A1 (TEXAS A AND M UNIVERSITY SYSTEM, published 2004)
